# Data reported in patent US20240262917A1 (Dana-Farber, published 2024).
# Positions count from the first letter of the chain named.
# B1: Monoclonal anti-ALK antibody 7F7 (antibody, IgG1, V domains shown)
# VH: QVQLQQSGAELVRPGASVTLSCKASGYTFTDYEIHWMKQTPVHGLEWIGTIDPETGGTAYNQKFKGKAILTADKSSSTAYMELRSLTSEDSAVYYCTRCYYGSSWYFDVWGTGTTVTVSS
# VL: DIQMTQTTSSLSASLGDRVTISCSASQGISNYLNWYQQKPDGTVKLLIYYTSSLHSGVPSRFSGSGSGTDYSLTISNLELEDIATYYCQQYSKVPRTFGGGTKLEIKR
# notes: also called Ab 7F7
# B2: Mouse monoclonal anti-ALK 8G7 (antibody, IgG1, V domains shown)
# VH: QVQLQQSGAELVRPGASVTLSCKASGYTFTDYEMHWVKQTPVHGLEWIGAIDPETGGSAYNQKFKAKAILTADRSSSTAYMELRSLTSEDSAVYYCTRTRYYGSSPAMDYWGQGTSVTVSS
# VL: DIQMTQTTSSLSASLGDRVTISCSASQGIGNYLNWYQQKPDGTVKLLIYYTSSLHSGVPSRFSGSGSGTDYSLTISNLEPEDIATYYCQQYSKLPYTFGGGTKLEIK
# notes: constant regions are not; also called Ab 8G7; 8G7 N-terminal anti-ALK antibody
# B3: Monoclonal anti-ALK antibody 5H3 (antibody, IgG1, V domains shown)
# VH: B2 VH
# VL: B1 VL with S30G, L80P, V94L, R96Y
# notes: The variable part as printed looks identical to that of 8G7; also called Ab 5H3
# Tests used:
# [1] = target: T1, Full-length human anaplastic lymphoma kinase (ALK) receptor, wild type (human, UniProt Q9UM73 19-1620); experiment: western blot of NB cell lysates
# T1 construct: Tested in cell lysates (western blot, IP) and on fixed cells (IF, ICC); HA- or FLAG-tagged in the co-IP dimerisation assay and FLAG-tagged and purified in the MMP-9 cleavage assay; also called WT ALK; ALK WT
# T1 sequence (Q9UM73 19-1620 limits assumed): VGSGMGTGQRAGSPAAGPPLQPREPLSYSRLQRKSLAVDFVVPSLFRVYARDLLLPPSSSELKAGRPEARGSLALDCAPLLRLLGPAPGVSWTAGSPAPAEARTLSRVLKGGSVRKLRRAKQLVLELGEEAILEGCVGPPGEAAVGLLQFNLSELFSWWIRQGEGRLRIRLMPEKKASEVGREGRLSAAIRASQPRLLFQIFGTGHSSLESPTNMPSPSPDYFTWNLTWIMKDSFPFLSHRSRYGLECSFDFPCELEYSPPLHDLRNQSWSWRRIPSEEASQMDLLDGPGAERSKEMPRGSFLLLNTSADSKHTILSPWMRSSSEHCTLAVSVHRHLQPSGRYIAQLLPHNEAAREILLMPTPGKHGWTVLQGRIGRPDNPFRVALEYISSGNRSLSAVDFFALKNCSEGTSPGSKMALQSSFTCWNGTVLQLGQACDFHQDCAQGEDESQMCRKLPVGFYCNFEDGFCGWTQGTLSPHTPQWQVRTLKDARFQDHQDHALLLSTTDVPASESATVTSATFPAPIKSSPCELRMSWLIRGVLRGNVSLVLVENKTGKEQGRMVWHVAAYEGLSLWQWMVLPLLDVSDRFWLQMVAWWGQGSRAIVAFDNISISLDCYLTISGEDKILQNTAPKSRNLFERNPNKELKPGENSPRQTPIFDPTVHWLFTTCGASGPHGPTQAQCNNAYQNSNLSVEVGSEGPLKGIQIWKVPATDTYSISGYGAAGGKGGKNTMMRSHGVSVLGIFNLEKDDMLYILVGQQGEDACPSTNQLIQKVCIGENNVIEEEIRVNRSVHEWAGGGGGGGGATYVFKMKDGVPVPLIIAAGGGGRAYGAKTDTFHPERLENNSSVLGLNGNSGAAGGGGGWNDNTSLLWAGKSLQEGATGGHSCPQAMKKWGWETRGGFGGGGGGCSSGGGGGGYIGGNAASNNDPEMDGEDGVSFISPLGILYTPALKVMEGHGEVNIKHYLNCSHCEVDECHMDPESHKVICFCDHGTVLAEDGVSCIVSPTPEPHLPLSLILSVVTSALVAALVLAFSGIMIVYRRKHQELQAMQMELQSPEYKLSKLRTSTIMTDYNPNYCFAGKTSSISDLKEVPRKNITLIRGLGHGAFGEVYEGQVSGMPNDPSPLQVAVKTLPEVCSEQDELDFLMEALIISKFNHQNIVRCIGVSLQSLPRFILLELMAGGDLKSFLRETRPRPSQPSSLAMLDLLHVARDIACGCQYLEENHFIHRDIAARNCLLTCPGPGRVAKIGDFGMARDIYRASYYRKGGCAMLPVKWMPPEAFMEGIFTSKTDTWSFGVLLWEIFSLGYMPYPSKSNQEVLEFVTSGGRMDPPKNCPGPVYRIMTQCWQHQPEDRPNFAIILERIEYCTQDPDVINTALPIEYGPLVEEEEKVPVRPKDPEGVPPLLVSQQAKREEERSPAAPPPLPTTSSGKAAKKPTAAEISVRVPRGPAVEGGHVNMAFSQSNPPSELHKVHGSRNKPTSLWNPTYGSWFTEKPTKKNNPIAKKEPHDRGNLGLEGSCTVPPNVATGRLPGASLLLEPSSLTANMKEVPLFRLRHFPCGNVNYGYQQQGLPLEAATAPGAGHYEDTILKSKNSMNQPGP
# Human ALK F1174L = target: T2, Human ALK F1174L (human, UniProt Q9UM73 19-1620); experiment: immunofluorescence on SHEP cells expressing ALK F1174L, 1:100 dilution
# T2 construct: Expressed in SHEP neuroblastoma cells (IF) and in tumours of the ALK F1174L/MYCN transgenic mouse (IHC)
# T2 sequence (Q9UM73 19-1620 F1174L limits assumed): as the sequence (Q9UM73 19-1620 limits assumed) above, with F1156L counted along it
# [2] = target: T3, Shed ALK extracellular domain fragment (ALK 1-654) (human, UniProt Q9UM73 19-654); experiment: sandwich ELISA, 7F7 capture, 8G7 detection, ALK-ECD protein as the varied antigen
# T3 construct: Fragment released into conditioned media or serum by cleavage at Asn654-Leu655; also called SF; secreted extracellular fragment
# T3 sequence (Q9UM73 19-654): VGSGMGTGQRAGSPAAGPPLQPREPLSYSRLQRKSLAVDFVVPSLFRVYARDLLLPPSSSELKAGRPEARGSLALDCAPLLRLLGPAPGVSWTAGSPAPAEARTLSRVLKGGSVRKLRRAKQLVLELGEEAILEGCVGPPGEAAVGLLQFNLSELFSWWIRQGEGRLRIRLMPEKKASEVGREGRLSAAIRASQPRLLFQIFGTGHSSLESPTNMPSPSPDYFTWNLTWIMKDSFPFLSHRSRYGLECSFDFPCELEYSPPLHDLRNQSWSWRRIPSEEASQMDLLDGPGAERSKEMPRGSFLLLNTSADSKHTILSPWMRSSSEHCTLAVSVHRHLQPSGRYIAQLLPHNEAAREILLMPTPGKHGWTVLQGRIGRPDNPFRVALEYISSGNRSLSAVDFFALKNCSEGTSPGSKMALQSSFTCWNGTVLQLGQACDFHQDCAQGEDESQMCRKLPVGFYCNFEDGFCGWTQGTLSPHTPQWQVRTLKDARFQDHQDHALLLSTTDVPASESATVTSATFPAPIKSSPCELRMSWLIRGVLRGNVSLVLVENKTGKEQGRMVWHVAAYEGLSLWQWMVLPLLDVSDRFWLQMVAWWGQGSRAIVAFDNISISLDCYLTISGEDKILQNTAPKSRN
# Description: (B) ELISA of the shed ALK ECD protein in sera from patients with neuroblastoma.
# ALK-hFc = target: T4, ALK-hFc; experiment: ELISA of hybridoma supernatant on a plate coated with ALK-hFc, detection with anti-mouse kappa light chain antibody; control row Co 0.067
# T4 construct: also called ALK ECD-human Fc fusion protein; ALK-ECD-hFc; not shown: Human IgG2 Fc of the vector pFUse-hIgG2-FC2, and any vector-derived junction residues
# T4 sequence (chain, as listed by the source limits assumed): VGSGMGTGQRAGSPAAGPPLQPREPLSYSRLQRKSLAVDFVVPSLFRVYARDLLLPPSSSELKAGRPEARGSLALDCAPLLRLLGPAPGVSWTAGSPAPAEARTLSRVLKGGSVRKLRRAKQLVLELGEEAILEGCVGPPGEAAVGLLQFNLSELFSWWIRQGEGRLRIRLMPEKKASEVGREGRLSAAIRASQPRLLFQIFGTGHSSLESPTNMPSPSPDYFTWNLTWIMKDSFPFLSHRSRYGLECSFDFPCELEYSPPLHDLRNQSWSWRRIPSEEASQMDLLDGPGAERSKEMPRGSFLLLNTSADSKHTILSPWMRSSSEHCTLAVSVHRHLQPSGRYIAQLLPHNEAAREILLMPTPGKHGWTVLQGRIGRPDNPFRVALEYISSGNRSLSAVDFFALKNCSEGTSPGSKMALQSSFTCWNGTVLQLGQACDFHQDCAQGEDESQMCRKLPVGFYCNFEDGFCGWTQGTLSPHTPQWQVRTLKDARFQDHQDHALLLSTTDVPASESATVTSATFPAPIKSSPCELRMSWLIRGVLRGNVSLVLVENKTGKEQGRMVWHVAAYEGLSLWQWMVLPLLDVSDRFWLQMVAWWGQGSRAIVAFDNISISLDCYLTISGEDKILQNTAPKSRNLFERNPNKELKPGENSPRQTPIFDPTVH
# Description: (§1) HAT-selected fused cells were distributed in 96 well plates and the hybridoma supernatants were subjected to several rounds of screening. Initial screening was performed using ELISA against human Fc to test antigen binding with the ALK ECD-human Fc fusion protein. […] These were rescreened by FACS against Ba/F3 and neuroblastoma (NB) cells expressing ALK. […] (A) Binding of hybridoma supernatants using an antigen-binding capture assay. The plate was coated with goat-anti-mouse IgG Fc, incubated with hybridoma supernatants, followed by ALK-HRP and visualized using an HRP substrate. (B) Binding of selected hybridoma supernatants to a human Fc antibody using ELISA screening. Plates were coated with the ALK ECD-human Fc fusion protein (ALK-hFc) together with an irrelevant hFc protein and visualized using an anti-mouse kappa light chain antibody.
# Irrel-hFc = target: T5, Irrel-hFc; experiment: ELISA of hybridoma supernatant on a plate coated with an irrelevant hFc protein, detection with anti-mouse kappa light chain antibody; control row Co 0.062
# T5 construct: also called irrelevant hFc protein
# Description: as §1
# [3] = target: T6, 140 kDa truncated membrane-bound C-terminal ALK fragment (human, UniProt Q9UM73 655-1620); experiment: western blot of NB cell lysates
# T6 construct: also called CTF; 140 kDa fragment
# T6 sequence (Q9UM73 655-1620): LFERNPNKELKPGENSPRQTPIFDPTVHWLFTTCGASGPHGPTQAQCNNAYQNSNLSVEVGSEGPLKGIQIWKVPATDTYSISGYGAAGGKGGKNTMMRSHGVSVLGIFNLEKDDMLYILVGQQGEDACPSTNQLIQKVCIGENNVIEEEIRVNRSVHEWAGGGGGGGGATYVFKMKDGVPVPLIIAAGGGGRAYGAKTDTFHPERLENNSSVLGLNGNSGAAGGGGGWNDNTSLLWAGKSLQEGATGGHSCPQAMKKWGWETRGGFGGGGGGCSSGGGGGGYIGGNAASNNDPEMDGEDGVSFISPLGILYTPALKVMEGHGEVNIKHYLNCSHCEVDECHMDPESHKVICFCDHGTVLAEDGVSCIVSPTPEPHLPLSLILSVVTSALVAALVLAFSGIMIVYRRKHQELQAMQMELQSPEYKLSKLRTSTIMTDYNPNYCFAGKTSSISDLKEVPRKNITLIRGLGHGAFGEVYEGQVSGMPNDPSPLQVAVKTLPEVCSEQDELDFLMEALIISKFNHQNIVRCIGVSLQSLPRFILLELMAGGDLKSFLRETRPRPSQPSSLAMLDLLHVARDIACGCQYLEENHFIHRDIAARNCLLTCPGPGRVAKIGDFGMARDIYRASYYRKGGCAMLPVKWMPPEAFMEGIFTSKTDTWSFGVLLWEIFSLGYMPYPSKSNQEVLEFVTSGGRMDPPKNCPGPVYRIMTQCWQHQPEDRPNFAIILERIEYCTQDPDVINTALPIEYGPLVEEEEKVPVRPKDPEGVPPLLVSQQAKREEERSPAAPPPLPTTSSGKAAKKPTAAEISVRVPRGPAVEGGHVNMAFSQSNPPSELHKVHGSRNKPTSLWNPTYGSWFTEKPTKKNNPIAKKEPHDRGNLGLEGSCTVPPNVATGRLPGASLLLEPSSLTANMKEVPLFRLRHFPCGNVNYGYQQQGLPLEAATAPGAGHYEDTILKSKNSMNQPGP
# ALK-LF655FY = target: T7, ALK-LF655FY; experiment: immunofluorescence on NIH3T3 cells expressing the construct
# T7 construct: also called NIH3T3 ALK LF655FY; MSCV-LF655FY
# T7 sequence (receptor chain, as listed by the source): as the sequence (Q9UM73 19-1620 limits assumed) above, with L637F, F638Y counted along it
# Description: A 1:100 antibody dilution was used.
# Cells (0.5×10⁶ per well) were seeded into six-well plates and grown on glass coverslips for 24 hr. before fixation in 4% paraformaldehyde in PBS for 15 min at room temperature (RT), washed with PBS, permeabilized in 0.1% Triton X-100, and blocked with PBS containing 0.05% Tween-20 and 5% BSA for 1 hr. to block nonspecific binding. […] Images were collected on a Zeiss AXIO Imager Z1 fluorescence microscope. […] After 24 hours, cells were washed once in PBS, fixed in 4% paraformaldehyde in PBS, washed, permeabilized in 0.1% Triton X-100, and blocked in PBS containing 10% horse serum. […] The next day, cells were washed, incubated in goat anti-rabbit IgG secondary antibody (1:1000) for 1 hr. washed, and incubated in Streptavidin-TexasRed (1:1000) for 1 hr. Cover slips were mounted onto slides using mounting medium containing DAPI. Images were collected on a Zeiss AXIO Imager Z1 fluorescence microscope.
Binder,binding result [1],binding result (Human ALK F1174L),binding result [2],ELISA reading (name not given) (ALK-hFc),ELISA reading (name not given) (Irrel-hFc),binding result [3],binding result (ALK-LF655FY)
B1,binds,binds,binds,0.872,0.063,,
B2,,,,0.56,0.064,no binding,binds
B3,,,,1.01,0.064,,
